Results as given in US20130133108A1, “EXTRACTS FROM PIRIN+ AND PIRIN- PLANTS AND USES THEREOF” (priority 2010, published 2013).

T1: In vitro-translated AtGPA1 pre-incubated with GTPgammaS (permanently activated conformation) (Arabidopsis thaliana, UniProt P18064 1-383)
T1 construct: Same polypeptide as m3 but a different nucleotide state; also called GPA1-GTPgammaS
T1 sequence (looked up): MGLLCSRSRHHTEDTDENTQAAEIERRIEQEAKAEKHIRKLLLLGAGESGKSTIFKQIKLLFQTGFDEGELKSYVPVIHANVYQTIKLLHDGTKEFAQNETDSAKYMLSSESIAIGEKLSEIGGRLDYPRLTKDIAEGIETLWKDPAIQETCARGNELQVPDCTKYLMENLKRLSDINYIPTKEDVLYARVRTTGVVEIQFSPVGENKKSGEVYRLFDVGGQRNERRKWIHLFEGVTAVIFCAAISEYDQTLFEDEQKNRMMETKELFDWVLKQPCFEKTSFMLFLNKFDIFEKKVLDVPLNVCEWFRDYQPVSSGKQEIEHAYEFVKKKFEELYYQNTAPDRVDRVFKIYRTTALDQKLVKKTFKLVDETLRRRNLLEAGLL

T2: In vitro-translated AtGPA1 pre-incubated with GDPalphaS (permanently inactive conformation) (Arabidopsis thaliana, UniProt P18064 1-383)
T2 construct: Same polypeptide as m2 but a different nucleotide state; also called GPA1-GDPalpha
T2 sequence (looked up): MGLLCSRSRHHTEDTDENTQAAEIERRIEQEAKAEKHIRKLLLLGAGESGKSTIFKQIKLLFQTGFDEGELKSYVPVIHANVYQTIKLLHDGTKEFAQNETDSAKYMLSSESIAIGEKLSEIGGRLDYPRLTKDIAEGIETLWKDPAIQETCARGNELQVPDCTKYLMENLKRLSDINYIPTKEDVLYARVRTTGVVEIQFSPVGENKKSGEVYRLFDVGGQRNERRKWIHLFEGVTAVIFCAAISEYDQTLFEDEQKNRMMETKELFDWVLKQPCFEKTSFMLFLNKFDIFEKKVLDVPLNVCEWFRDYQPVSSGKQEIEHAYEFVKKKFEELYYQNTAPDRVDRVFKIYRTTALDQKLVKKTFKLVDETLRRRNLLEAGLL

B1: Arabidopsis thaliana Pirin1 (AtPirin1), in vitro-translated (enzyme)
chain: MTYENNSVPRIVIKKVLAKLEKEGEGAVVRNGITKIDQKLLDPFVLLVEFSFSLSAGFPDHPHRGFESVTYMLQGGIIHKDPKGHKGTIQAGDVQWMTAGRGIIHSEFPEEEVNNGLQLWINLPSTEKMTEPKYKELSSLDIPRAEENGVEVKVIAGDSMGIKSPVYTRTPTMFLDFTLKPGSQTHQTVPESWTAFAYIIEGDEGVFGSLNSSAISAHHVVVFGPGDLVSVWNKSTSRSLRFLLIAGEPIGEPVVQCGPFVMNSQAEIDMAFDDYQNAKNGFEMAKC
notes: also called PRN1; Prn1

Assays:
animal cells = conditions: reported, no source named; cited from earlier work
[1] = Quercetinase (quercetin 2,3-dioxygenase) activity of in vitro-translated AtPirin1, absorbance spectrum; type: biochemical, Arabidopsis thaliana
Description: Full-length PIRIN1 template was prepared, amplified and purified by the methods described (Lapik and Kaufman, Plant Cell. 15(7):1578-90, 2003; Warpeha et al., Plant Physiol. 140:844-55, 2006). Pirin1 proteins were individually produced by coupled in vitro transcription/translation using TNT T7 Coupled Wheat Germ Extract System (Promega; Madison, Wis.) as directed and as modified previously (Warpeha et al., Plant Physiol. 140:844-55, 2006). Translated Pirin1 was subsequently incubated with quercetin in complete darkness in a 26° C. circulating water bath for 15 minutes.
The quercetin 2,3-dioxygenase activity of Pirin1 was determined as described in Adams and Jai (J. Biol. Chem. 280(31):28675-82, 2005). Briefly, the quercetin 2,3-dioxygenase activity of pirin wase assayed at 295 K for 5 min in a reaction mixture containing 50 mm NaH2PO4, pH 8.0, 300 mm NaCl, 60 μm quercetin in Me2SO, and 18.5 nm enzyme. Activity was observed by following the decrease in the absorbance maximum for quercetin, which occurs at 384 nm at pH 8.0. The inhibitors kojic acid, sodium diethyldithiocarbamate, and 1,10-phenanthroline monohydrochloride were dissolved in Me2SO and added to the reactions at a final concentration of 50 nm.
(§1) Translated Pirin1 was prepared as described above and in vitro association assays were conducted in assay buffer (pre-incubations included magnesium) at 26° C. (Adams and Jai, J. Biol. Chem. 280(31):28675-82, 2005; Warpeha et al., Plant Physiol. 140:844-55, 2006). GPA1 was incubated with Pirin1 in a 1:1 ratio. “Activated” Pirin1 was achieved by pre-incubation with 100 μM GTPγS (a non-hydrolysable GTP analog). “Inactivated” Pirin1 was achieved by pre-incubation with GDP, or GDPγS (a non-hydrolysable GDP analog). Both pre-incubations occurred overnight in darkness at 10° C.

[2] = target: T1, In vitro-translated AtGPA1 …; experiment: in vitro association/activity assay, GPA1:Pirin1 1:1, interaction inferred from loss of quercetinase activity
Description: as §1
(§2) The observed AtPirin1 quercetinase activity is regulated through its' interactions with GPA. […] AtGPA1 bound to one of the two non-hydrolyzable analogs was then incubated with AtPirin1 and quercetin in conditions identical to that for FIG. 1.

[3] = target: T2, In vitro-translated AtGPA1 …; experiment: in vitro association/activity assay, GPA1:Pirin1 1:1, association inferred from the quercetin absorbance spectrum
Description: as §1, §2

Molecule	concentration considered toxic in animal cells (animal cells)	quercetinase activity with activated conformation of AtGPA1 ([1]; AtGPA1 pre-incubated with GTPγS, FIG. 2)	absorbance peak of quercetin with AtPirin1 and inactivated conformation of AtGPA1 ([1]; AtGPA1 pre-incubated with non-hydrolysable GDP analog, FIG. 2)	quercetinase activity (cleavage of quercetin) ([1]; AtPirin1 alone with quercetin, 15 min at 26° C., FIG. 1)	absorbance peak of quercetin after addition of AtPirin1 ([1]; AtPirin1 alone, within 15 min at 26° C., quercetin alone 384 nm)	binding result [2]	binding result [3]
O=c1c(O)c(-c2ccc(O)c(O)c2)oc2cc(O)cc(O)c12 [quercetin]	above 20 μM	–	–	–	–	–	–
B1	–	no quercetinase activity	405-410 nm	specific cleavage of quercetin	405-410 nm	binds	binds
